Measurements from PMC11303871 (The Journal of Cell Biology, 2024).

Target: T1, 3xFlag::CYB-3 (in situ-tagged cyclin B3) (C. elegans, UniProt Q10654 1-385)
T1 sequence: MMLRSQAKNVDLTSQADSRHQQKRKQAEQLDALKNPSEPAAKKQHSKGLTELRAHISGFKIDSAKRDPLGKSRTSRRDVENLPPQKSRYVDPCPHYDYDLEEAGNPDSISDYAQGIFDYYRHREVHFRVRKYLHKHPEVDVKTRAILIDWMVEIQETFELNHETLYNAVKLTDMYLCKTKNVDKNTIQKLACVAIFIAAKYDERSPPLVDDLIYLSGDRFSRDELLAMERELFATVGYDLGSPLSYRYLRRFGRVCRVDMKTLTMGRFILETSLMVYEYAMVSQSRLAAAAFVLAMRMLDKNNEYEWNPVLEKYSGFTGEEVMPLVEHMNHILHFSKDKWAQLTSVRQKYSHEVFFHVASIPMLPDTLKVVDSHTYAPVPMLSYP
Assay: co-IP

B1: CDK-1 (C. elegans Cdk1), endogenous (enzyme)
chain: not shown
With B1 the “amount of CDK-1 bound relative to CYB-1” value was ~1.3 times.

B2: CDK-1 phosphorylated at T179 (pT179 CDK-1), endogenous (enzyme)
chain: not shown
modifications: phosphothreonine at 179 (pT179)
In the case of B2, the “amount of pT179 CDK-1 bound relative to CYB-1” value is reported as ~1.3 fold.

B3: CDK-1 phosphorylated at Y33 (pY33 CDK-1), endogenous (enzyme)
chain: not shown
modifications: phosphotyrosine at 33 (pY33)
B3 was tested, and the “amount of pY33 CDK-1 bound relative to CYB-1” value was ~1.3 fold.
